Results from publication doi:10.1101/2023.10.19.563203.
Where two headings read alike, the source gives them in different places.

Tests used:
fibrin (human) [1] = biological target: fibrin (human) (UniProt P02679); assay: radioligand binding
fibrin (human) [2] = biological target: fibrin (human) (UniProt P02679); assay: depletion on clotting, ELISA of plasma against the serum made from it
fibrin (human) [3] = biological target: fibrin (human) (UniProt P02679); assay: co-sedimentation
fibrin (human) [4] = biological target: fibrin (human) (UniProt P02679); assay: co-sedimentation; remark: listed apart in the source

Row | Kd (fibrin (human) [1]) [nM] | binding at 75 mM NaCl as percent of that at 20 mM NaCl (fibrin (human) [1]) [%] | percent of input bound (500,000 cpm/well) (fibrin (human) [1]) [%] | percent of input bound at saturation (input 3.5 μg) (fibrin (human) [1]) [%] | percent of the plasma level lost in the serum (healthy volunteer) (fibrin (human) [2]) [%] | percent bound at 96 min, non-denaturing wash (fibrin (human) [3]) [%] | fold increase of percent bound, enhanced against normal clots, at 140 mM NaCl (fibrin (human) [4]) [fold] | percent bound after 16 h, after 5 M urea wash (Table 1) (fibrin (human) [4]) [%] | percent bound at 30 min, after 5 M urea wash (fibrin (human) [4]) [%] | percent bound at 30 min, non-denaturing wash (fibrin (human) [4]) [%] | percent bound at 96 min, after 5 M urea wash (fibrin (human) [4]) [%] | percent bound at 96 min, non-denaturing wash (fibrin (human) [4]) [%] | percent bound at 960 min, after 5 M urea wash (fibrin (human) [4]) [%] | percent bound to enhanced plasma clots, 40 min, HEPES-½-saline wash (fibrin (human) [4]) [%] | percent bound to fibrin-only-clots, HEPES-½-saline wash (fibrin (human) [4]) [%] | percent bound to plasma clots at 70 mM salt (fibrin (human) [4]) [%] | Substance
1 | 0.055 | < 50 | 1.7 | 0.1 | 38 | 25 | 6 | 30 | 13 | 22 | 18 | 26 | 32.5 | 21.5 | 19 | 21.5 | factor H (from UniProt P08603 19-1231) (natural protein)
2 | – | – | – | – | – | – | – | 31 | – | – | – | – | – | – | – | – | plasminogen (natural protein)
